According to patent publication US20110034670A1 (BOARD OF GOVERNORS FOR HIGHER EDUCATION STATE OF RHODE …, published 2011):
*1 amine or outer side, *2 acyl side, *3 side chain or, on linkers, in order; H or OH if unused. Where no end group is shown, it is not given here. [ ]: non-standard residue; d: D form. Phe(4-NHSO2CH3) = 4-(methylsulfonamido)phenylalanine, CS(=O)(=O)Nc1ccc(C[C@H](N[*:1])C(=O)[*:2])cc1; Phe(4-guanidino) = N=C(N)Nc1ccc(C[C@H](N)C(=O)O)cc1; pY = N[C@@H](Cc1ccc(OP(=O)(O)O)cc1)C(=O)O; Phe(4-Cl) = N[C@@H](Cc1ccc(Cl)cc1)C(=O)O; Phe(4-F) = N[C@@H](Cc1ccc(F)cc1)C(=O)O; Phe(4-I) = N[C@@H](Cc1ccc(I)cc1)C(=O)O; Phe(NH2) = aminophenylalanine; Phe(NO2) = nitrophenylalanine; Phe(CN) = cyanophenylalanine; Phe(N3) = azidophenylalanine; βAla = NCCC(=O)O

B1: YIF(NO2)GSFK (86) (peptide)
peptide: YI[Phe(NO2)]GSFK
B2: Ac-CIYKF(4-F)Y (74) (peptide)
peptide: Ac-CIYK[Phe(4-F)]Y
B3: YIYGSFK (85) (peptide)
peptide: YIYGSFK
B4: Ac-CIF(NO2)KYY (64) (peptide)
peptide: Ac-CI[Phe(NO2)]KYY
B5: CIYKF(NO2)Y (77) (peptide)
peptide: CIYK[Phe(NO2)]Y
B6: Ac-CIYKYF(NO2) (66) (peptide)
peptide: Ac-CIYKY[Phe(NO2)]
B7: Ac-CIYKF(N3)Y (79) (peptide)
peptide: Ac-CIYK[Phe(N3)]Y
B8: Ac-CIYKF(NH2)Y (63) (peptide)
peptide: Ac-CIYK[Phe(NH2)]Y
B9: Ac-CIYKF(NO2)Y (62) (peptide)
peptide: Ac-CIYK[Phe(NO2)]Y
B10: Ac-CIYKF(4-C1)Y (75) (peptide)
peptide: Ac-CIYK[Phe(4-Cl)]Y
B11: Ac-CIF(NH2)KYY (67) (peptide)
peptide: Ac-CI[Phe(NH2)]KYY
B12: Ac-CIYKF(4-Guanidine)Y (73) (peptide)
peptide: Ac-CIYK[Phe(4-guanidino)]Y
B13: Ac-CIYKF(4-NHSO2CH3)Y (80) (peptide)
peptide: Ac-CIYK[Phe(4-NHSO2CH3)]Y
B14: Ac-CIYKF(CN)Y (78) (peptide)
peptide: Ac-CIYK[Phe(CN)]Y
B15: Ac-CIYKF(4-I)Y (76) (peptide)
peptide: Ac-CIYK[Phe(4-I)]Y
B16: Ac-CIYKYF(NH2) (68) (peptide)
peptide: Ac-CIYKY[Phe(NH2)]
B17: Ac-CIYKFY (61) (peptide)
peptide: Ac-CIYKFY
B18: Ac-YIF(NO2)GSFK (87) (peptide)
peptide: Ac-YI[Phe(NO2)]GSFK
B19: Ac-CIYKF(NO2)F(NO2) (70) (peptide)
peptide: Ac-CIYK[Phe(NO2)][Phe(NO2)]
B20: Ac-CIYKF(NO2)YF (65) (peptide)
peptide: Ac-CIYK[Phe(NO2)]YF
B21: Ac-CIYKY (82) (peptide)
peptide: Ac-CIYKY
B22: Ac-CIF(NO2)KYF(NO2) (71) (peptide)
peptide: Ac-CI[Phe(NO2)]KY[Phe(NO2)]
B23: Ac-CYKpYY (84) (peptide)
peptide: Ac-CYK[pY]Y
B24: IYKYY (81) (peptide)
peptide: IYKYY
B25: Ac-CYKF(4-C1)Y (83) (peptide)
peptide: Ac-CYK[Phe(4-Cl)]Y
B26: Ac-CIF(NO2)KF(NO2)Y (69) (peptide)
peptide: Ac-CI[Phe(NO2)]K[Phe(NO2)]Y
B27: 3-phenylpyrazolopyrimidine-peptide conjugate 54 (peptide)
peptide: {3‑phenylpyrazolopyrimidine}-GCIYKYY
B28: 3-phenylpyrazolopyrimidine-peptide conjugate 45 (peptide)
peptide: Cys-Ile-Tyr
modifications: not fully specified (N-terminus); also: short linker to N-terminus
B29: Ac-YIYGSFK (41) (peptide)
peptide: Ac-YIYGSFK
B30: 3-phenylpyrazolopyrimidine-peptide conjugate 53 (peptide)
peptide: YIYGSFK(3‑phenylpyrazolopyrimidine)
B31: 3-phenylpyrazolopyrimidine-peptide conjugate 43 (3-phenylpyrazolopyrimidine-YIYGSFK) (peptide)
peptide: YIYGSFK
modifications: not fully specified (N-terminus); also: short linker between the label and the N-terminus not given here
B32: ATP-βAla-pTyr-Glu-Glu-Ile-OH (1) (peptide)
peptide: {ATP}-[βAla][pY]EEI-OH
notes: also called compound 1; ATP-phosphopeptide conjugate 1

Molecular target: Src tyrosine kinase
Assay: cell-based or functional assay

IC50, inhibitory potency (Src kinase assay, polyE4Y phosphorylation) [µM]	Binder
> 100	B1
26	B2
> 100	B3
1.5	B4
3	B5
10.8	B6
2	B7
93	B8
0.53	B9
7.3	B10
760	B11
> 700	B12
> 100	B13
6	B14
0.78	B15
> 700	B16
> 700	B17
> 100	B18

Molecular target: Src tyrosine kinase
Assay: cell-based or functional assay
Remark: another data set of the same source

IC50, inhibitory potency (Src kinase assay, polyE4Y phosphorylation) [µM]	Binder
5.6	B19
1	B20
> 100	B21
3.4	B22
> 100	B23
211	B24
39	B25
1.4	B26

Molecular target: Src tyrosine kinase
Assay: cell-based or functional assay
Remark: another data set of the same source

fold reduction of inhibitory potency compared to 42 [fold]	fold higher inhibitory potency versus 40 [fold]	fold reduction of inhibitory activity compared to 42 [fold]	IC50, inhibition of polyE4Y phosphorylation (radioactive kinase assay) [µM]	fold reduction of inhibitory potency compared to 43 [fold]	IC50, inhibition of polyE4Y phosphorylation by active Src [µM]	Binder
21	–	–	–	–	–	B27
–	~750	–	–	–	–	B9
–	–	~145	–	–	–	B28
–	–	–	570	–	–	B29
–	–	–	–	11	–	B30
–	–	–	–	–	2.7	B31

Molecular target: Src tyrosine kinase
Assay: steady-state kinetics, radioactive kinase assay; ATP-binding site of Src

Ki [µM]	Binder
1.7	B32
